Test results taken from patent US6156511A, “Peptide library and screening method” (Affymax Technologies N.V., priority 1998, dated 2000).
Like-named read-outs stand apart in the source and are kept apart here.

Tests used:
[1] = biological target: headpiece dimer B4.5 (mutant) Q18R (second headpiece) (Escherichia coli) (UniProt P03023); settings: panning Exp. 3; lacOs plasmid complex stability, site of binding not established
[2] = biological target: headpiece dimer A4.5 (mutant) Q18R (second headpiece) (Escherichia coli) (UniProt P03023); settings: panning of protein-plasmid complex
[3] = biological target: Lac repressor (LacI)-peptide fusion, full length (Escherichia coli) (UniProt P03023); settings: plasmid panning on D32.39 antibody; deletion of lacOs, near background
[4] = test system: DNA; settings: cited from earlier work
[5] = test system: plasmid pCMG14 fragments / lacOs-containing fragments; test: Protein-DNA binding experiments with plasmid fragments (gel shift, 32P-labeled fragments); settings: over-expressed polypeptides; with unlabelled herring DNA competitor
Protocol: To determine the plasmid binding site(s) of headpiece dimer mutant A4.5 and the non-mutant B7, several protein-DNA binding experiments were performed.

[6] = test system: wild-type lacO; settings: single wild-type lacO; cited from earlier work
[7] = test system: lacZYA; test: Repression of chromosomal lacZYA, direct β-galactosidase assay in strain ARI 20; assay type: cell-based, E. coli
Excerpt: One can estimate the lacI expression level necessary to fill the available binding sites in a typical plasmid p.MC5 derivative by observing the behavior of strain ARI 20 (lacI^- lacZYA^+) transformed with pMC3 or pMC5 (encoding only the linker peptide GADGA [SEQ. ID NO.:65]). Because the lacO sites in plasmids pMC3 and pMC5 have higher affinity than those in the lacZYA operon, the available repressor should fill the plasmid sites first. Substantial repression of lacZYA should be observed only if there is an excess of repressor beyond the amount needed to fill the plasmid sites. As shown by color level on X-gal indicator plates and direct assays of β-galactosidase (see Miller, Experiments in Molecular Genetics (Cold Spring Harbor Laboratory, Cold Spring Harbor, N.Y. (1972)), incorporated herein by reference), the amount of repressor produced by pMC5 is sufficient to fill the lacO sites and repress greater than 200 fold lacZYA in ARI 20 host cells during growth in normal LB medium (2.4 units compared to 500 units from ARI 20 transformed with vector pBAD18, which has no lacI). The repressor encoded by pMC3 was partially inactivated by the addition of the dynorphin B tail, allowing about 10 fold higher expression of lacZYA (37 units). […]

[8] = biological target: Lac repressor (LacI)-peptide fusion, full length (Escherichia coli, UniProt P03023 P03023:1-360); test: panning Exp. 3, partial (B) induction; settings: chain copies: 4 (stated tetramer)

Molecule AATTGTGAGCGCTCACAATT (double strand) has an activity (fold enrichment) [1] of 850 and a binding signal (fold enrichment) ([2]; plasmid with lacOs) of 43.

Work on plasmid lacking lacOs yielded a binding signal (fold enrichment) ([2]; lacOs not required) of 44 and a binding signal (fold drop in enrichment) [3] of 446.

For “arc repressor: arc repressor of phage P22 (MKGMSKMPQFNLRWPREVLDLVRKVAEENGRSVNSEIYQRVMESFKKEGRIGA; UniProt P03050 1-53, looked up)”, the dissociation half-life [4] is given as 1.33 h.

B1: lac repressor: 37 kDa product of the E. coli lacI gene, binds lacO (protein, UniProt P03023 1-360, looked up)
Lactose operon repressor: MKPVTLYDVAEYAGVSYQTVSRVVNQASHVSAKTREKVEAAMAELNYIPNRVAQQLAGKQSLLIGVATSSLALHAPSQIVAAIKSRADQLGASVVVSMVERSGVEACKAAVHNLLAQRVSGLIINYPLDDQDAIAVEAACTNVPALFLDVSDQTPINSIIFSHEDGTRLGVEHLVALGHQQIALLAGPLSSVSARLRLAGWHKYLTRNQIQPIAEREGDWSAMSGFQQTMQMLNEGIVPTAMLVANDQMALGAMRAITESGLRVGADISVVGYDDTEDSSCYIPPLTTIKQDFRLLGQTSVDRLLQLSQGQAVKGNQLLPVSLVKRKTTLAPNTQTASPRALADSLMQLARQVSRLESGQ
For B1, the “binding to 32P-labeled plasmid fragments” value [5] is given as “specific binding of lacI to lacOs -containing fragments”, the association rate constant [6] is given as 7e+09 M⁻¹ s⁻¹ and the “half-life for the lac repressor-lacO complex” value [6] is given as “about 30 min”.

B2: pMC5: library plasmid encoding lac repressor with only the linker peptide GADGA (protein, UniProt P03023 1-360, looked up)
Lactose operon repressor: B1 Lactose operon repressor
modifications: C-terminal GADGA linker peptide
In the case of B2, the “repression of lacZYA” value ([7]; ARI 20, LB medium, compared with vector pBAD18 (no lacI)) is reported as “greater than 200 fold” and the β-galactosidase ([7]; ARI 20 host cells, normal LB medium) is reported as 2.4 units.

B3: lacOs (symmetric lac operator) on plasmid or plasmid fragment (dsDNA)
DNA 1: AATTGTGAGCGCTCACAATT
DNA 2: AATTGTGAGCGCTCACAATT
Work on B3 yielded an activity [8] of 155 fold enrichment.
